Test results as given in the supplement of paper PMC9233669.
This sample holds only a part of the variants without activity.

How the values were obtained:
biotinyl-Phe-oxazolone = experiment: self-aminoacylation, catalytic enhancement (BFO) (fold over background); higher = more active; k-Seq, kA / k0A0; sequences stand for … in GGGAAUGGAUCCACAUCUACGAAUUC…UUCACUGCAGACUUGACGAAGCUG
Summary of the method: (§1)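 Each biotinyl-aminoacyl-oxazolone, at 2–1250 μM, was incubated with mutagenized RNA pools (0.43 μM) carrying a 21-nt variable region. The 50 μL reactions contained HEPES/NaCl/KCl/MgCl2/CaCl2 buffer with 5% acetonitrile at pH 6.9–7.0 and ran for 90 minutes at room temperature. After streptavidin capture, RNA was measured by qPCR in triplicate and by Illumina sequencing, and catalytic enhancement was calculated as median kA over the uncatalyzed rate from a pseudo-first-order fit of per-sequence fraction reacted.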

biotinyl-Trp-oxazolone = experiment: self-aminoacylation, catalytic enhancement (BWO) (fold over background); higher = more active; k-Seq, kA / k0A0; sequences stand for … in GGGAAUGGAUCCACAUCUACGAAUUC…UUCACUGCAGACUUGACGAAGCUG
Summary of the method: as §1

biotinyl-Leu-oxazolone = experiment: self-aminoacylation, catalytic enhancement (BLO) (fold over background); higher = more active; k-Seq, kA / k0A0; sequences stand for … in GGGAAUGGAUCCACAUCUACGAAUUC…UUCACUGCAGACUUGACGAAGCUG
Summary of the method: as §1

biotinyl-Val-oxazolone = experiment: self-aminoacylation, catalytic enhancement (BVO) (fold over background); higher = more active; k-Seq, kA / k0A0; sequences stand for … in GGGAAUGGAUCCACAUCUACGAAUUC…UUCACUGCAGACUUGACGAAGCUG
Summary of the method: as §1

biotinyl-Met-oxazolone = experiment: self-aminoacylation, catalytic enhancement (BMO) (fold over background); higher = more active; k-Seq, kA / k0A0; sequences stand for … in GGGAAUGGAUCCACAUCUACGAAUUC…UUCACUGCAGACUUGACGAAGCUG
Summary of the method: as §1

biotinyl-Ile-oxazolone = experiment: self-aminoacylation, catalytic enhancement (BIO) (fold over background); higher = more active; k-Seq, kA / k0A0; sequences stand for … in GGGAAUGGAUCCACAUCUACGAAUUC…UUCACUGCAGACUUGACGAAGCUG
Summary of the method: as §1

Sequence | self-aminoacylation (biotinyl-Phe-oxazolone) | self-aminoacylation (biotinyl-Trp-oxazolone) | self-aminoacylation (biotinyl-Leu-oxazolone) | self-aminoacylation (biotinyl-Val-oxazolone) | self-aminoacylation (biotinyl-Met-oxazolone) | self-aminoacylation (biotinyl-Ile-oxazolone)
AUUAGCCUGGUGAUCGAGUGA [Fam2.1 aminoacylation ribozyme variant] | 41.1 | 8.57 | 7.61 | 3.62 | 7.43 | 3.98
GUUACCCUGGUCAUCGAGCGA [Fam2.1 aminoacylation ribozyme variant] | 5.54 | 4.27 | 4.14 | 3.46 | 4.51 | 2.84
AUUCACCUAAGUCAGCGGGUG [Fam2.2 aminoacylation ribozyme variant] | 25 | 2.8 | 5.01 | 2.88 | 3.78 | 3.01
AUUACCCUGGUCACCGAGUCA [Fam2.1 aminoacylation ribozyme variant] | 0.799 | 1.84 | 1.75 | 1.49 | 1.45 | 1.43
AUUCACCUCGGUCAUCGCGUG [Fam2.2 aminoacylation ribozyme variant] | 109 | 12.9 | 16 | 7.67 | 11.4 | 6.77
CCACACUUCAAGCUACCGGUC [Fam1B.1 aminoacylation ribozyme variant] | 0.832 | 0.946 | 1.2 | 1.3 | 0.931 | 1.23
AUUACCCUGGUAAUGGAGUGA [Fam2.1 aminoacylation ribozyme variant] | 55.9 | 9.08 | 8.53 | 3.73 | 8.43 | 3.32
AAGAUUGCUAAUAGUCGCAAA [Fam3.1 aminoacylation ribozyme variant] | 1.39 | 2.09 | 1.43 | 1.3 | 1.37 | 1.58
GUUACCCUGGUCAUUGAGUGA [Fam2.1 aminoacylation ribozyme variant] | 71.3 | 13 | 11 | 5.29 | 10.2 | 4.72
AAGUAUGCUAAUAGUCGCAUG [Fam3.1 aminoacylation ribozyme variant] | 1.66 | 1.84 | 1.55 | 1.09 | 1.45 | 1.34
AAGUUUGCUAAAAGUCGCAAA [Fam3.1 aminoacylation ribozyme variant] | 1.91 | 1.32 | 1.67 | 1.59 | 1.87 | 1.7
CUACUUCUAACAAUCGGUCGG [Fam1A.1 aminoacylation ribozyme variant] | 0.725 | 0.653 | 0.978 | 0.728 | 0.626 | 0.843
CUAAUUCAAACAAUCGAUCUG [Fam1A.1 aminoacylation ribozyme variant] | 0.72 | 0.361 | 0.544 | 0.561 | 0.43 | 0.604
AUAACCCUGGUCAUCGAGUCA [Fam2.1 aminoacylation ribozyme variant] | 0.721 | 0.624 | 0.781 | 0.806 | 0.958 | 0.774
AUACACUUCAAGCAAUCGGUC [Fam1B.1 aminoacylation ribozyme variant] | 9.74 | 5.86 | 0.979 | 0.96 | 0.804 | 1.05
AUUCAUCUAGGUCAUCUGGUG [Fam2.2 aminoacylation ribozyme variant] | 18.8 | 2.86 | 4.25 | 2.16 | 3.4 | 2.1
AUUCAUCUAGGUCAGCGGGUG [Fam2.2 aminoacylation ribozyme variant] | 25.3 | 4.36 | 5.56 | 3.23 | 4.17 | 3.25
CCAGACUUCAGGCAAUCGGUC [Fam1B.1 aminoacylation ribozyme variant] | 1.79 | 1.83 | 1.57 | 1.64 | 1.36 | 1.45
CUACUUCAAACAAUCGGUAAG [Fam1A.1 aminoacylation ribozyme variant] | 1.29 | 0.835 | 0.448 | 0.662 | 0.454 | 0.516
AUUCACCAAGGUCAUGGGGUG [Fam2.2 aminoacylation ribozyme variant] | 77.3 | 8.64 | 12.7 | 5.88 | 9.1 | 6.16
CAGUUUGCUAAUAGUUGCAAG [Fam3.1 aminoacylation ribozyme variant] | 1.55 | 1.18 | 1.5 | 1.23 | 1.44 | 1.53
AAGUUUGCGAAUAGUUGCAAG [Fam3.1 aminoacylation ribozyme variant] | 0.975 | 1.16 | 0.661 | 0.803 | 1.2 | 0.915
CCACUUCAAACAAUCGGUCAG [Fam1A.1 aminoacylation ribozyme variant] | 13.7 | 9.79 | 1.03 | 1.04 | 0.992 | 1.01
AUGUUUGCUAAUAGUCGCGAG [Fam3.1 aminoacylation ribozyme variant] | 3.75 | 2.18 | 1.48 | 1.65 | 1.57 | 1.65
CUACUUCGAACAAUCUGUCUG [Fam1A.1 aminoacylation ribozyme variant] | 0.413 | 0.337 | 0.576 | 0.576 | 0.51 | 0.539
CUACUUCAAACUAUCGGUAUG [Fam1A.1 aminoacylation ribozyme variant] | 0.842 | 0.665 | 0.601 | 0.813 | 0.557 | 0.715

Sequence | self-aminoacylation (biotinyl-Phe-oxazolone) | self-aminoacylation (biotinyl-Trp-oxazolone) | self-aminoacylation (biotinyl-Leu-oxazolone) | self-aminoacylation (biotinyl-Val-oxazolone) | self-aminoacylation (biotinyl-Met-oxazolone) | self-aminoacylation (biotinyl-Ile-oxazolone)
AUUCACCCAGGUCAUUGGGUG [Fam2.2 aminoacylation ribozyme variant] | 23.8 | 3.71 | 4.11 | 2.52 | 3.36 | 2.31
AAGUUUGGUAAUACUCGCAAG [Fam3.1 aminoacylation ribozyme variant] | 1.07 | 0.719 | 0.673 | 1.04 | 0.998 | 1.06
CCACACUUCACGGAAUCGGUC [Fam1B.1 aminoacylation ribozyme variant] | 1.01 | 0.915 | 1.65 | 1.39 | 1.14 | 1.16
GAGUUUGCUAAUAGUCACAAG [Fam3.1 aminoacylation ribozyme variant] | 11.7 | 4.25 | 1.36 | 1.48 | 1.62 | 1.84
AUCCACCUAGGUAAUCGGGUG [Fam2.2 aminoacylation ribozyme variant] | 27.6 | 5.34 | 4.49 | 3.1 | 3.45 | 3
UUUACCCGGGUCAUCGAGUGA [Fam2.1 aminoacylation ribozyme variant] | 43.1 | 9.17 | 7.17 | 4.02 | 7.15 | 3.4
AAGUUUGGUAAUAGUCGCCAG [Fam3.1 aminoacylation ribozyme variant] | 4.77 | 2.18 | 1.27 | 1.32 | 1.1 | 1.32
AAGUUUGCUAAUAGCCGCACG [Fam3.1 aminoacylation ribozyme variant] | 1.41 | 2.52 | 1.32 | 1.21 | 1.08 | 1.31
AUUACCCUGGUCUCCGAGUGA [Fam2.1 aminoacylation ribozyme variant] | 64.4 | 9.46 | 8.91 | 4.33 | 7.41 | 3.95
CCGGACUUCAAGCAAUCGGUC [Fam1B.1 aminoacylation ribozyme variant] | 39.3 | 26.3 | 2.03 | 1.71 | 1.31 | 1.5
AUUCACCUGGGUCAUCGGGUA [Fam2.2 aminoacylation ribozyme variant] | 47.8 | 14.8 | 22.3 | 10.6 | 18.6 | 8.3
AUUCAGCUAGGUCAUCGGGGG [Fam2.2 aminoacylation ribozyme variant] | 16.7 | 2.72 | 3.48 | 2.23 | 2.69 | 3.18
AUACUUCAUACAAUCGGUCUG [Fam1A.1 aminoacylation ribozyme variant] | 1.1 | 0.952 | 0.874 | 0.939 | 0.981 | 1.02
AAGUUUGCUAAAAGUCGGAAG [Fam3.1 aminoacylation ribozyme variant] | 5.57 | 1.22 | 0.778 | 0.924 | 0.755 | 0.814
AUUCACCUAGGUCAUCGCGGG [Fam2.2 aminoacylation ribozyme variant] | 10.7 | 2.25 | 4.05 | 2.47 | 3.25 | 2.97
AAGUUUACUAAUAGUCACAAG [Fam3.1 aminoacylation ribozyme variant] | 2.55 | 1.39 | 1.33 | 1.44 | 1.33 | 1.74
AUUCACCUACGUCAUCGUGUG [Fam2.2 aminoacylation ribozyme variant] | 0.74 | 0.425 | 0.86 | 0.818 | 0.602 | 0.632
CCACACUUCAAGCAUUCGUUC [Fam1B.1 aminoacylation ribozyme variant] | 0.811 | 0.688 | 0.653 | 1.02 | 0.685 | 0.852
AAGUUUGCUAAUAGUCACAAC [Fam3.1 aminoacylation ribozyme variant] | 1.47 | 0.593 | 0.637 | 0.621 | 0.6 | 0.673
GUUCACCUAGGCCAUCGGGUG [Fam2.2 aminoacylation ribozyme variant] | 25.4 | 3.64 | 3.61 | 3.86 | 3.77 | 3.17
GAGUAUGCUAAUAGUCGCAAG [Fam3.1 aminoacylation ribozyme variant] | 6.5 | 4.13 | 1.45 | 1.61 | 1.49 | 1.91
GUUCACCUAGCUCAUCGGGUG [Fam2.2 aminoacylation ribozyme variant] | 1.08 | 2.86 | 2.06 | 1.91 | 1.64 | 1.55
CCCCACUUCAAGCAAUCGGUC [Fam1B.1 aminoacylation ribozyme variant] | 57.5 | 31.5 | 1.97 | 1.83 | 1.48 | 1.54
AUUACCCUCGUCACCGAGUGA [Fam2.1 aminoacylation ribozyme variant] | 21.2 | 5.5 | 4.63 | 2.74 | 4.34 | 2.33
AUUUACCUAGGUCAUCGGAUG [Fam2.2 aminoacylation ribozyme variant] | 0.723 | 0.671 | 0.846 | 0.974 | 0.954 | 0.906
